In the supplement of paper PMC6757056:
± gives the standard deviation of the averaged measurements.

B1: library; a variant is named by its letters at N, in order (parent)
chain: GCUGUCACCGGUGUAUUACCCUAGUGGUCGACCGGUCUGAUGAGUCUNNNNNNAGACGAAACAGC

Experiments:
[1] = variants of: B1; test: normalized RNA/DNA level with ligand (relative to sTRSVctl = 100) (log10 (% of sTRSVctl)); ligand: hypoxanthine (xanthine aptamer); higher = less ribozyme self-cleavage, higher mRNA level; details: ligand concentration (+) RNA-Seq: 5 mM, HEK293T, reporter: mCherry (pCS4076), ligand present: yes
Method in brief: (§1)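 Total RNA, extracted with EDTA 72 h after HEK293T cells were transfected with 4 µg per 6-well well of reporter-linked ribozyme switch library plasmids, was reverse-transcribed, amplified, barcoded and sequenced. Ligand, if used, was added 1 h before transfection. RNA level was derived from RNA reads divided by DNA reads and normalized to a spiked-in non-cleaving sequence or to the top sequences. This was multiplied by 100 and log10-transformed, with the top set of 25 sequences and a ≥100 DNA read minimum.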

[2] = variants of: B1; test: normalized RNA/DNA level without ligand (relative to sTRSVctl = 100) (log10 (% of sTRSVctl)); ligand: hypoxanthine (xanthine aptamer); higher = less ribozyme self-cleavage, higher mRNA level; details: HEK293T, reporter: mCherry (pCS4076), ligand present: no
Method in brief: as §1

Row | Variant | normalized RNA/DNA level with ligand (log10) [1] | normalized RNA/DNA level without ligand (log10) [2]
1 | GCUGUCACCGGUGUAUUACCCUAGUGGUCGACCGGUCUGAUGAGUCUCGGUACAGACGAAACAGC [CGGUAC] | 1.88 ± 0.03 | 1.54 ± 0.084
2 | GCUGUCACCGGUGUAUUACCCUAGUGGUCGACCGGUCUGAUGAGUCUUGGUUAAGACGAAACAGC [UGGUUA] | 1.94 ± 0.044 | 1.871 ± 0.0021
3 | GCUGUCACCGGUGUAUUACCCUAGUGGUCGACCGGUCUGAUGAGUCUAGGGUGAGACGAAACAGC [AGGGUG] | 1.886 ± 0.012 | 1.54 ± 0.09
4 | GCUGUCACCGGUGUAUUACCCUAGUGGUCGACCGGUCUGAUGAGUCUAGGUCCAGACGAAACAGC [AGGUCC] | 1.962 ± 0.017 | 1.856 ± 0.0097
5 | GCUGUCACCGGUGUAUUACCCUAGUGGUCGACCGGUCUGAUGAGUCUAGGUCUAGACGAAACAGC [AGGUCU] | 1.95 ± 0.028 | 1.813 ± 0.013
6 | GCUGUCACCGGUGUAUUACCCUAGUGGUCGACCGGUCUGAUGAGUCUAGGGGUAGACGAAACAGC [AGGGGU] | 1.855 ± 0.0023 | 1.61 ± 0.032
7 | GCUGUCACCGGUGUAUUACCCUAGUGGUCGACCGGUCUGAUGAGUCUUGGGGUAGACGAAACAGC [UGGGGU] | 1.915 ± 0.017 | 1.64 ± 0.034
8 | GCUGUCACCGGUGUAUUACCCUAGUGGUCGACCGGUCUGAUGAGUCUCGGUUAAGACGAAACAGC [CGGUUA] | 1.89 ± 0.11 | 1.52 ± 0.045
9 | GCUGUCACCGGUGUAUUACCCUAGUGGUCGACCGGUCUGAUGAGUCUUGGUCCAGACGAAACAGC [UGGUCC] | 1.98 ± 0.035 | 1.93 ± 0.039
10 | GCUGUCACCGGUGUAUUACCCUAGUGGUCGACCGGUCUGAUGAGUCUUGGUCUAGACGAAACAGC [UGGUCU] | 1.91 ± 0.028 | 1.91 ± 0.025
11 | GCUGUCACCGGUGUAUUACCCUAGUGGUCGACCGGUCUGAUGAGUCUUGGUACAGACGAAACAGC [UGGUAC] | 1.98 ± 0.088 | 1.85 ± 0.041
12 | GCUGUCACCGGUGUAUUACCCUAGUGGUCGACCGGUCUGAUGAGUCUUGGUAAAGACGAAACAGC [UGGUAA] | 1.902 ± 0.013 | 1.712 ± 0.011
13 | GCUGUCACCGGUGUAUUACCCUAGUGGUCGACCGGUCUGAUGAGUCUUGGUAGAGACGAAACAGC [UGGUAG] | 1.88 ± 0.028 | 1.55 ± 0.011
14 | GCUGUCACCGGUGUAUUACCCUAGUGGUCGACCGGUCUGAUGAGUCUUGGUAUAGACGAAACAGC [UGGUAU] | 1.907 ± 0.0077 | 1.707 ± 0.017
15 | GCUGUCACCGGUGUAUUACCCUAGUGGUCGACCGGUCUGAUGAGUCUCGGUGCAGACGAAACAGC [CGGUGC] | 1.96 ± 0.052 | 1.8 ± 0.051
16 | GCUGUCACCGGUGUAUUACCCUAGUGGUCGACCGGUCUGAUGAGUCUCGGUGAAGACGAAACAGC [CGGUGA] | 1.93 ± 0.042 | 1.57 ± 0.042
17 | GCUGUCACCGGUGUAUUACCCUAGUGGUCGACCGGUCUGAUGAGUCUCGGUGGAGACGAAACAGC [CGGUGG] | 1.862 ± 0.011 | 1.37 ± 0.032
18 | GCUGUCACCGGUGUAUUACCCUAGUGGUCGACCGGUCUGAUGAGUCUCGGGUCAGACGAAACAGC [CGGGUC] | 2.01 ± 0.05 | 1.946 ± 0.017
19 | GCUGUCACCGGUGUAUUACCCUAGUGGUCGACCGGUCUGAUGAGUCUCGGGUGAGACGAAACAGC [CGGGUG] | 1.893 ± 0.013 | 1.7 ± 0.05
20 | GCUGUCACCGGUGUAUUACCCUAGUGGUCGACCGGUCUGAUGAGUCUUGGUGUAGACGAAACAGC [UGGUGU] | 1.95 ± 0.067 | 1.599 ± 0.0035
21 | GCUGUCACCGGUGUAUUACCCUAGUGGUCGACCGGUCUGAUGAGUCUUGGUGCAGACGAAACAGC [UGGUGC] | 1.94 ± 0.011 | 1.855 ± 0.0028

Row | Variant | normalized RNA/DNA level with ligand (log10) [1] | normalized RNA/DNA level without ligand (log10) [2]
22 | GCUGUCACCGGUGUAUUACCCUAGUGGUCGACCGGUCUGAUGAGUCUUGGUGAAGACGAAACAGC [UGGUGA] | 1.88 ± 0.023 | 1.52 ± 0.088
23 | GCUGUCACCGGUGUAUUACCCUAGUGGUCGACCGGUCUGAUGAGUCUUGGUGGAGACGAAACAGC [UGGUGG] | 1.93 ± 0.038 | 1.596 ± 0.0083
24 | GCUGUCACCGGUGUAUUACCCUAGUGGUCGACCGGUCUGAUGAGUCUGGGUGUAGACGAAACAGC [GGGUGU] | 1.9307 ± 0.0015 | 1.81 ± 0.062
25 | GCUGUCACCGGUGUAUUACCCUAGUGGUCGACCGGUCUGAUGAGUCUCGGUCAAGACGAAACAGC [CGGUCA] | 2.011 ± 0.012 | 1.8 ± 0.026
26 | GCUGUCACCGGUGUAUUACCCUAGUGGUCGACCGGUCUGAUGAGUCUCGGUCUAGACGAAACAGC [CGGUCU] | 1.95 ± 0.034 | 1.89 ± 0.048
27 | GCUGUCACCGGUGUAUUACCCUAGUGGUCGACCGGUCUGAUGAGUCUCGGUCGAGACGAAACAGC [CGGUCG] | 1.9971 ± 7.8e-05 | 1.87 ± 0.023
28 | GCUGUCACCGGUGUAUUACCCUAGUGGUCGACCGGUCUGAUGAGUCUCGGUCCAGACGAAACAGC [CGGUCC] | 2 ± 0.059 | 1.88 ± 0.066
29 | GCUGUCACCGGUGUAUUACCCUAGUGGUCGACCGGUCUGAUGAGUCUGGGUCAAGACGAAACAGC [GGGUCA] | 1.99 ± 0.068 | 1.91 ± 0.032
30 | GCUGUCACCGGUGUAUUACCCUAGUGGUCGACCGGUCUGAUGAGUCUGGGUCGAGACGAAACAGC [GGGUCG] | 1.99 ± 0.02 | 1.78 ± 0.051
31 | GCUGUCACCGGUGUAUUACCCUAGUGGUCGACCGGUCUGAUGAGUCUGGGUCUAGACGAAACAGC [GGGUCU] | 1.98 ± 0.054 | 1.93 ± 0.037
32 | GCUGUCACCGGUGUAUUACCCUAGUGGUCGACCGGUCUGAUGAGUCUAGGUGUAGACGAAACAGC [AGGUGU] | 1.92 ± 0.028 | 1.49 ± 0.098
33 | GCUGUCACCGGUGUAUUACCCUAGUGGUCGACCGGUCUGAUGAGUCUAGGUGGAGACGAAACAGC [AGGUGG] | 1.83 ± 0.021 | 1.391 ± 0.011
34 | GCUGUCACCGGUGUAUUACCCUAGUGGUCGACCGGUCUGAUGAGUCUAGGUGCAGACGAAACAGC [AGGUGC] | 1.93 ± 0.051 | 1.68 ± 0.04
35 | GCUGUCACCGGUGUAUUACCCUAGUGGUCGACCGGUCUGAUGAGUCUGGGUUCAGACGAAACAGC [GGGUUC] | 1.95 ± 0.053 | 1.91 ± 0.095
36 | GCUGUCACCGGUGUAUUACCCUAGUGGUCGACCGGUCUGAUGAGUCUAGGUUAAGACGAAACAGC [AGGUUA] | 1.93 ± 0.035 | 1.68 ± 0.031
37 | GCUGUCACCGGUGUAUUACCCUAGUGGUCGACCGGUCUGAUGAGUCUUGGGUGAGACGAAACAGC [UGGGUG] | 1.972 ± 0.0063 | 1.727 ± 0.016
38 | GCUGUCACCGGUGUAUUACCCUAGUGGUCGACCGGUCUGAUGAGUCUUGGGUCAGACGAAACAGC [UGGGUC] | 1.98 ± 0.043 | 1.966 ± 0.0086
39 | GCUGUCACCGGUGUAUUACCCUAGUGGUCGACCGGUCUGAUGAGUCUUGGGUUAGACGAAACAGC [UGGGUU] | 1.99 ± 0.023 | 1.9 ± 0.047
40 | GCUGUCACCGGUGUAUUACCCUAGUGGUCGACCGGUCUGAUGAGUCUGGGGUUAGACGAAACAGC [GGGGUU] | 1.98 ± 0.037 | 1.96 ± 0.034
41 | GCUGUCACCGGUGUAUUACCCUAGUGGUCGACCGGUCUGAUGAGUCUGGGGUCAGACGAAACAGC [GGGGUC] | 1.94 ± 0.025 | 1.84 ± 0.03
42 | GCUGUCACCGGUGUAUUACCCUAGUGGUCGACCGGUCUGAUGAGUCUGGGGUGAGACGAAACAGC [GGGGUG] | 1.95 ± 0.027 | 1.562 ± 0.0074
